This note sets out measurements from publication PMC11459905, “Identification of SLC25A46 interaction interfaces with mitochondrial membrane fusogens Opa1 and Mfn2” (The Journal of Biological Chemistry, 2024).

The test addresses T1, Strep-Opa1 (s-Opa1, amino acids 253-960), expressed in P. pastoris (human, UniProt O60313 253-960).
T1 construct: Opa1 (optic atrophy 1), human, residues 253-960 (s-Opa1); N-terminal Twin-Strep tag, HRV 3C cleavage site and (G4S)3 linker; The methods also name a tagged Opa1(263-960); also called optic atrophy 1; Opa1(253-960); source: P. pastoris SMD1163, in GDN extract (lysate); purified as a complex with SLC25A46 for cross-linking; not shown: Twin-Strep, N-terminal, kept
T1 sequence (looked up): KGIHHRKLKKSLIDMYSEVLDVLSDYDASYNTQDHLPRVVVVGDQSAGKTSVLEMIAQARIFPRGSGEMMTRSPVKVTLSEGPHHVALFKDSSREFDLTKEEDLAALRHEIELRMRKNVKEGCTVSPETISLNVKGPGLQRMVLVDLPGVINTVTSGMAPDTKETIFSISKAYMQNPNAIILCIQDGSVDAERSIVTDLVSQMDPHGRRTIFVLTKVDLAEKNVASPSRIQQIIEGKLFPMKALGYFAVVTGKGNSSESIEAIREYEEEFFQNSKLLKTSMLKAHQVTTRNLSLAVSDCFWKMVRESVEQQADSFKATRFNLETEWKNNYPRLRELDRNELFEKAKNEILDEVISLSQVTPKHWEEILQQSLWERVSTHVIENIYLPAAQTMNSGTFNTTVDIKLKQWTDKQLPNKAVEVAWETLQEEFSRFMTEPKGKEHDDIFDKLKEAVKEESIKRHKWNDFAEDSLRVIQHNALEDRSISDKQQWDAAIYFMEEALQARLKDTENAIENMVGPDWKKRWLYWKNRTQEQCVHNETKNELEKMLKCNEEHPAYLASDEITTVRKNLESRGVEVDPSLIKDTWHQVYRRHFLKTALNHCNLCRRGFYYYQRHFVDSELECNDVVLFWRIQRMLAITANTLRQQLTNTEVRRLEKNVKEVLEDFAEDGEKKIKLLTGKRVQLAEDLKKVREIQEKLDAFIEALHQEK
In words: pull-down; GDN extracts of P. pastoris expressing or coexpressing the proteins; Strep-tagged Opa1 or Mfn2 held on StrepTactin XT 4Flow resin in a spin column, 4 °C, 25 mM Hepes, 150 mM NaCl, pH 8.0, washes with 0.1% GDN, elution with 50 mM biotin; Western blot; also with GTPγS, GMPPCP or GDP added to the lysates (no effect on coelution). As to conditions: partners not purified. (In western blotting, separated proteins are transferred to a membrane and probed.)

B1: Solute carrier family 25 member A46 with C-terminal deca-histidine (SLC25A46-His), wild type (natural protein, human, UniProt Q96AG3 1-418, looked up)
chain: MHPRRPDGFDGLGYRGGARDEQGFGGAFPARSFSTGSDLGHWVTTPPDIPGSRNLHWGEKSPPYGVPTTSTPYEGPTEEPFSSGGGGSVQGQSSEQLNRFAGFGIGLASLFTENVLAHPCIVLRRQCQVNYHAQHYHLTPFTVINIMYSFNKTQGPRALWKGMGSTFIVQGVTLGAEGIISEFTPLPREVLHKWSPKQIGEHLLLKSLTYVVAMPFYSASLIETVQSEIIRDNTGILECVKEGIGRVIGMGVPHSKRLLPLLSLIFPTVLHGVLHYIISSVIQKFVLLILKRKTYNSHLAESTSPVQSMLDAYFPELIANFAASLCSDVILYPLETVLHRLHIQGTRTIIDNTDLGYEVLPINTQYEGMRDCINTIRQEEGVFGFYKGFGAVIIQYTLHAAVLQITKIIYSTLLQNNI
notes: SLC25A46, human; gene synthesized (GenScript), cloned into pPICZ A; C terminus fused to (G4S)3 linker, TEV cleavage site and deca-histidine; only a pPICZ A (P. pastoris) construct of SLC25A46 is described; also called WT SLC25A46; source: P. pastoris SMD1163, in GDN extract (lysate); also recombinantly expressed and purified; not shown: His10, C-terminal, kept
In the case of B1, the binding result is on record as “binds”.
